Square brackets hold non-standard residues; d marks the D form. Primed or numbered codes have the meaning given here. * marks the point of attachment. m‑dPEG(4)″ = m-dPEG(4) acid, coupled to Acp (R^111 group of Formula (4)), COCCOCCOCCOCCC(=O)*; m‑dPEG(4) = m-dPEG(4) acid, coupled to Acp, with Acp forms R^111 of Formula (4); 2Nal = N[C@@H](Cc1ccc2ccccc2c1)C(=O)O; Cha = N[C@@H](CC1CCCCC1)C(=O)O; Chg = N[C@H](C(=O)O)C1CCCCC1; Nva = CCC[C@H](N)C(=O)O; Ahx = NCCCCCC(=O)O
T1: myostatin (UniProt O14793 267-375, limits assumed)
T1 sequence (looked up): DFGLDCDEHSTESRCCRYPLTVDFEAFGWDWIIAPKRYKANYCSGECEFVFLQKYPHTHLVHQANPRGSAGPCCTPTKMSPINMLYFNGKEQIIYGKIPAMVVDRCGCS

B1: PDM-52 (peptide)
peptide: {m‑dPEG(4)″-Ahx}-WYIEWIKIQI[Nva]SKLRL-NH2
SMILES: CCC[C@H](NC(=O)[C@@H](NC(=O)[C@H](CCC(N)=O)NC(=O)[C@@H](NC(=O)[C@H](CCCCN)NC(=O)[C@@H](NC(=O)[C@H](Cc1c[nH]c2ccccc12)NC(=O)[C@H](CCC(=O)O)NC(=O)[C@@H](NC(=O)[C@H](Cc1ccc(O)cc1)NC(=O)[C@H](Cc1c[nH]c2ccccc12)NC(=O)CCCCCNC(=O)CCOCCOCCOCCOC)[C@@H](C)CC)[C@@H](C)CC)[C@@H](C)CC)[C@@H](C)CC)C(=O)N[C@@H](CO)C(=O)N[C@@H](CCCCN)C(=O)N[C@@H](CC(C)C)C(=O)N[C@@H](CCCNC(=N)N)C(=O)N[C@@H](CC(C)C)C(N)=O
B2: PDM-44 (peptide)
peptide: {m‑dPEG(4)″-Ahx}-WYIE[2Nal]IKIQIISKLRL-NH2
SMILES: CC[C@H](C)[C@H](NC(=O)[C@H](Cc1ccc(O)cc1)NC(=O)[C@H](Cc1c[nH]c2ccccc12)NC(=O)CCCCCNC(=O)CCOCCOCCOCCOC)C(=O)N[C@@H](CCC(=O)O)C(=O)N[C@@H](Cc1ccc2ccccc2c1)C(=O)N[C@H](C(=O)N[C@@H](CCCCN)C(=O)N[C@H](C(=O)N[C@@H](CCC(N)=O)C(=O)N[C@H](C(=O)N[C@H](C(=O)N[C@@H](CO)C(=O)N[C@@H](CCCCN)C(=O)N[C@@H](CC(C)C)C(=O)N[C@@H](CCCNC(=N)N)C(=O)N[C@@H](CC(C)C)C(N)=O)[C@@H](C)CC)[C@@H](C)CC)[C@@H](C)CC)[C@@H](C)CC
B3: PDM-39 (peptide)
peptide: {m‑dPEG(4)″-Ahx}-W[Cha]IEWIKIQIISKLRL-NH2
SMILES: CC[C@H](C)[C@H](NC(=O)[C@H](CC1CCCCC1)NC(=O)[C@H](Cc1c[nH]c2ccccc12)NC(=O)CCCCCNC(=O)CCOCCOCCOCCOC)C(=O)N[C@@H](CCC(=O)O)C(=O)N[C@@H](Cc1c[nH]c2ccccc12)C(=O)N[C@H](C(=O)N[C@@H](CCCCN)C(=O)N[C@H](C(=O)N[C@@H](CCC(N)=O)C(=O)N[C@H](C(=O)N[C@H](C(=O)N[C@@H](CO)C(=O)N[C@@H](CCCCN)C(=O)N[C@@H](CC(C)C)C(=O)N[C@@H](CCCNC(=N)N)C(=O)N[C@@H](CC(C)C)C(N)=O)[C@@H](C)CC)[C@@H](C)CC)[C@@H](C)CC)[C@@H](C)CC
B4: PDM-53 (peptide)
peptide: {m‑dPEG(4)″-Ahx}-WYIEWIKIQI[Chg]SKLRL-NH2
SMILES: CC[C@H](C)[C@H](NC(=O)[C@H](Cc1ccc(O)cc1)NC(=O)[C@H](Cc1c[nH]c2ccccc12)NC(=O)CCCCCNC(=O)CCOCCOCCOCCOC)C(=O)N[C@@H](CCC(=O)O)C(=O)N[C@@H](Cc1c[nH]c2ccccc12)C(=O)N[C@H](C(=O)N[C@@H](CCCCN)C(=O)N[C@H](C(=O)N[C@@H](CCC(N)=O)C(=O)N[C@H](C(=O)N[C@H](C(=O)N[C@@H](CO)C(=O)N[C@@H](CCCCN)C(=O)N[C@@H](CC(C)C)C(=O)N[C@@H](CCCNC(=N)N)C(=O)N[C@@H](CC(C)C)C(N)=O)C1CCCCC1)[C@@H](C)CC)[C@@H](C)CC)[C@@H](C)CC
B5: PDM-38 (peptide)
peptide: {m‑dPEG(4)″-Ahx}-W[2Nal]IEWIKIQIISKLRL-NH2
SMILES: CC[C@H](C)[C@H](NC(=O)[C@H](Cc1ccc2ccccc2c1)NC(=O)[C@H](Cc1c[nH]c2ccccc12)NC(=O)CCCCCNC(=O)CCOCCOCCOCCOC)C(=O)N[C@@H](CCC(=O)O)C(=O)N[C@@H](Cc1c[nH]c2ccccc12)C(=O)N[C@H](C(=O)N[C@@H](CCCCN)C(=O)N[C@H](C(=O)N[C@@H](CCC(N)=O)C(=O)N[C@H](C(=O)N[C@H](C(=O)N[C@@H](CO)C(=O)N[C@@H](CCCCN)C(=O)N[C@@H](CC(C)C)C(=O)N[C@@H](CCCNC(=N)N)C(=O)N[C@@H](CC(C)C)C(N)=O)[C@@H](C)CC)[C@@H](C)CC)[C@@H](C)CC)[C@@H](C)CC

Each binder was assayed against T1, myostatin (assay: cell-based or functional assay).

Myostatin inhibitory activity at 0.3 µM (luciferase reporter assay), ≥ 40 % inhibition:
H-WYIEWIKIQIWSKLRL-NH2 [nPDM-55]
H-WYIRWIKIQIWSKLRL-NH2 [nPDM-55/E31R]
{m‑dPEG(4)-Ahx}-WYIESIKIQIWSKLRL-NH2 [PDM-63]
H-WYIKWIKIQIWSKLRL-NH2 [nPDM-55/E31K]
{m‑dPEG(4)-Ahx}-WYIEWIKIQIWSKLRL-NH2 [PDM-55]
H-WYIQWIKIQIWSKLRL-NH2 [nPDM-55/E31Q]

Myostatin inhibitory activity at 1 µM (luciferase reporter assay), ≥ 40 % inhibition:
H-WYIEWIKIQIWSKLRL-NH2 [nPDM-55]
H-WYIESIKIQIWSKLRL-NH2 [nPDM-63]
{m‑dPEG(4)-Ahx}-WYIERIKIQIISKLRL-NH2 [PDM-47]
{m‑dPEG(4)-Ahx}-WRIEWIKIQIISKLRL-NH2 [PDM-42]
{m‑dPEG(4)-Ahx}-WYIEWIKIQIYSKLRL-NH2 [PDM-56]
{m‑dPEG(4)-Ahx}-WYIEYIKIQIISKIRL-NH2 [PDM-50]
{m‑dPEG(4)-Ahx}-WHIEWIKIQIISKLRL-NH2 [PDM-41]
H-WYIESIKIQIISKLRL-NH2 [nPDM-46]
{m‑dPEG(4)-Ahx}-WFIEWIKIQIISKLRL-NH2 [PDM-37]
{m‑dPEG(4)-Ahx}-HYIEWIKIQIISKLRL-NH2 [PDM-35]
{m‑dPEG(4)-Ahx}-LYIEWIKIQIISKLRL-NH2 [PDM-34]
B1
{m‑dPEG(4)-Ahx}-WYIELIKIQIISKLRL-NH2 [PDM-45]
{m‑dPEG(4)-Ahx}-YYIESIKIQIISKLRL-NH2 [PDM-61]
{m‑dPEG(4)-Ahx}-WSIEWIKIQIISKLRL-NH2 [PDM-43]
B2
{m‑dPEG(4)-Ahx}-WYIESIKIQIWSKLRL-NH2 [PDM-63]
{m‑dPEG(4)-Ahx}-WLIEWIKIQIISKLRL-NH2 [PDM-40]
B3
{m‑dPEG(4)-Ahx}-YWIEWIKIQIISKLRL-NH2 [PDM-28]
B4
{m‑dPEG(4)-Ahx}-WRIESIKIQIISKLRL-NH2 [PDM-62]
B5
{m‑dPEG(4)-Ahx}-WYIEHIKIQIISKIRL-NH2 [PDM-51]
{m‑dPEG(4)-Ahx}-WYIESIKIQIISKLRL-NH2 [PDM-46]
{m‑dPEG(4)-Ahx}-WYIEWIKIQIFSKLRL-NH2 [PDM-54]
{m‑dPEG(4)-Ahx}-WYIEWIKIQIWSKLRL-NH2 [PDM-55]
{m‑dPEG(4)-Ahx}-WYIEFIKIQIISKIRL-NH2 [PDM-49]

Reference: US20190177370A1 (TOKYO UNIVERSITY OF PHARMACY AND LIFE SCIENCES, published 2019)
